Experimental findings from paper PMC11101737 are described below.

In this series the target is glucocorticoid receptor (GR) (UniProt P04150 1-777). Briefly: EMSA. (In general: A gel shift assay detects complexes by their altered migration in electrophoresis.)
Chain of glucocorticoid receptor (GR) (P04150 whole entry): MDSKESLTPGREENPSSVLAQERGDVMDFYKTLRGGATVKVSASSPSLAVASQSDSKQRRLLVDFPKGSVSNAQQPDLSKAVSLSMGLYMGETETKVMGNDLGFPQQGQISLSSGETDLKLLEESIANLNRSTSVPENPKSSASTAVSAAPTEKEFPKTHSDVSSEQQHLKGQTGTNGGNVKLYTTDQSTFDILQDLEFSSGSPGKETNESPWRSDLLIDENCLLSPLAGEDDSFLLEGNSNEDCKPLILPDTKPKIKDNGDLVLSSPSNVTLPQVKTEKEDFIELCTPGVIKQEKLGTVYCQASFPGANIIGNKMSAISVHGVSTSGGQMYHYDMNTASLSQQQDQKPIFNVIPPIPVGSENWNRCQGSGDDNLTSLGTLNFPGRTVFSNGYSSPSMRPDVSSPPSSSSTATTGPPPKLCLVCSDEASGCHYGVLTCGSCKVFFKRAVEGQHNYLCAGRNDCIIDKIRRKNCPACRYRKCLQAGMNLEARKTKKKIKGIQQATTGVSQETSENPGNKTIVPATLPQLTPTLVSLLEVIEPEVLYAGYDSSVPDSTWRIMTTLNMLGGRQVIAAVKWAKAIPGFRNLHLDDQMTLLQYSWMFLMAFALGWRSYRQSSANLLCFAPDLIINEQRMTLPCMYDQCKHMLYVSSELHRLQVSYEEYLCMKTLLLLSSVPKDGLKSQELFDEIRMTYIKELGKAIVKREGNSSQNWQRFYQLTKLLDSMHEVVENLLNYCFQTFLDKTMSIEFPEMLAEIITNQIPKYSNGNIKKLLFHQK

B1: AAV2 D-sequence (D) (dsDNA)
DNA 1: CTCCATCACTAGGGGTTCCT
DNA 2: AGGAACCCCTAGTGATGGAG
Consider B1, for which the binding result is listed as “binds”.

B2: GRE (dsDNA)
DNA 1: CTAGGCTGTACAGGATGTTCTGCCTAG
DNA 2: CTAGGCAGAACATCCTGTACAGCCTAG
As to B2, the binding result is “binds”.
